Experimental data as given in patent US20110177059A1, “PSA AND KLK2 AS THERAPEUTIC TARGETS AND MOLECULES INHIBITING PSA AND KLK2” (UNIVERSITY OF ROCHESTER, priority 2008, published 2011).

Test system: LN-PSA cells
Test: MTT assay with PSA proteinase inhibitor, LN-PSA cells
Format: cell-based, human
Conditions: 1000 ng/ml, vs vehicle 1x PBS
Method: Cells of stable transfected LNCaP, CWR22rv1, PC-3 and Du145 sublines were seeded in 24-well tissue culture plates at a density of 5000 cells/well in media containing 10% CD-FBS with 1 nM DHT. At the indicated time points, the medium was replenished and determined cell proliferation by MTT [3-(4,5-dimethylthiazol-2-yl)-2,5-diphenyltetrazolium bromide assay. Serum-free medium containing MTT (0.5 mg/ml, Sigma) was added into each well and after 4 h incubation at 37° C., cellular formazan product was dissolved with acidic isopropanol, and the absorbance at OD595 was measured by spectrophotometry (Beckman Du640B). 6 replicate wells were used for each sample at each time point. a-Antichymotrypsin (MP Biomedicals, Inc) at a concentration of 1000 ng/ml was used in the MTT assay as a PSA proteinase inhibitor to treat the LNCaP cell sublines. LN-PSA, LN-siPSA cells were grown in 100-mm dishes. The cells were digested by trypsin-EDTA, harvested as many as 1×10^6 cells, and fixed them in 70% ethanol at 4° C. After 12 h, cells were centrifuged (1000 g, 7 min, 4° C.), and resuspended in PBS containing 0.05 mg/ml RNase A (Sigma), and then incubated at room temperature for 30min. After washing, the cells were stained with […] propidium iodide, filtered through a […], and analyzed 10,000 cells by flow cytometry (FACSCalibur, BD Company) with MODFIT software (Verity Software House, Inc).

B1: α1-antichymotrypsin: PSA protease inhibitor (MP Biomedicals), used at 1000 ng/ml (protein, UniProt P01011 24-423, looked up)
Alpha-1-antichymotrypsin: HPNSPLDEENLTQENQDRGTHVDLGLASANVDFAFSLYKQLVLKAPDKNVIFSPLSISTALAFLSLGAHNTTLTEILKGLKFNLTETSEAEIHQSFQHLLRTLNQSSDELQLSMGNAMFVKEQLSLLDRFTEDAKRLYGSEAFATDFQDSAAAKKLINDYVKNGTRGKITDLIKDLDSQTMMVLVNYIFFKAKWEMPFDPQDTHQSRFYLSKKKWVMVPMMSLHHLTIPYFRDEELSCTVVELKYTGNASALFILPDQDKMEEVEAMLLPETLKRWRDSLEFREIGELYLPKFSISRDYNLNDILLQLGIEEAFTSKADLSGITGARNLAVSQVVHKAVLDVFEEGTEASAATAVKITLLSALVETRTIVRFNRPFLMIIVPTDTQNIFFMSKVTNPKQA
Question: Which results are given for B1?
Answer: PSA-induced cell growth (MTT): limited influence; PSA-induced cell growth (MTT) (listed as ACT): not significantly changed
